B1: GFP-SAS-6-Strep (natural protein)
chain: MSQVLFHQLVPLQVKCKDCEERRVSIRMSIELQSVSNPVHRKDLVIRLTDDTDPFFLYNLVISEEDFQSLKFQQGLLVDFLAFPQKFIDLLQQCTQEHAKEIPRFLLQLVSPAAILDNSPAFLNVVETNPFKHLTHLSLKLLPGNDVEIKKFLAGCLKCSKEEKLSLMQSLDDATKQLDFTRKTLAEKKQELDKLRNEWASHTAALTNKHSQELTNEKEKALQAQVQYQQQHEQQKKDLEILHQQNIHQLQNRLSELEAANKDLTERKYKGDSTIRELKAKLSGVEEELQRTKQEVLSLRRENSTLDVECHEKEKHVNQLQTKVAVLEQEIKDKDQLVLRTKEAFDTIQEQKVVLEENGEKNQVQLGKLEATIKSLSAELLKANEIIKKLQGDLKTLMGKLKLKNTVTIQQEKLLAEKEEKLQKEQKELQDVGQSLRIKEQEVCKLQEQLEATVKKLEESKQLLKNNEKLITWLNKELNENQLVRKQDVLGPSTTPPAHSSSNTIRSGISPNLNVVDGRLTYPTCGIGYPVSSAFAFQNTFPHSISAKNTSHPGSGTKVQFNLQFTKPNASLGDVQSGATISMPCSTDKENGENVGLESKYLKKREDSIPLRGLSQNLFSNSDHQRDGTLGALHTSSKPTALPSASSAYFPGQLPNS

Assays:
SAS-6 [1] = molecular target: SAS-6 (UniProt Q6UVJ0); assay: GFP-Trap co-IP, SAS-6 blot; conditions: reference: wild type; sites S325
SAS-6 [2] = molecular target: SAS-6 (UniProt Q6UVJ0); assay: GFP-Trap co-IP, SAS-6 blot; conditions: reference: wild type; sites S325; remark: listed apart in the source
Strep-NEDD1 = Strep-NEDD1 (human, UniProt Q8NHV4 1-660); assay: pull-down
Sequence of Strep-NEDD1 (Q8NHV4 whole entry): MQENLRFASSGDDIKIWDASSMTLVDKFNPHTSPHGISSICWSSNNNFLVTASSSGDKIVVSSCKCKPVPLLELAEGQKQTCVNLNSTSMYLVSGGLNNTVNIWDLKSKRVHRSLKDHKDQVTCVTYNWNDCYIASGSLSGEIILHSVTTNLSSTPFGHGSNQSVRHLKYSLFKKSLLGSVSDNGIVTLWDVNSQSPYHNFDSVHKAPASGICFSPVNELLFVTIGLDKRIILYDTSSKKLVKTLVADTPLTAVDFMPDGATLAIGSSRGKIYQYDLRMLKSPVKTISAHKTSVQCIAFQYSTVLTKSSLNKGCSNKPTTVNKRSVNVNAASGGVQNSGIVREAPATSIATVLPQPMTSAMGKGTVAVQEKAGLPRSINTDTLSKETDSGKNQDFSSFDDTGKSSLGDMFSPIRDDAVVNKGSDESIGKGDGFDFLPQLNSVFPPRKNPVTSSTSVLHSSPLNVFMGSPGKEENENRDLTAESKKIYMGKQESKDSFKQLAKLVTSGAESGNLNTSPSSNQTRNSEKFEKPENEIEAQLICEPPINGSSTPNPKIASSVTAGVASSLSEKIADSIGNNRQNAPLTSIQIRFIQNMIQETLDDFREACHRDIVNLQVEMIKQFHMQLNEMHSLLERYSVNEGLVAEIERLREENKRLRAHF

| Molecule | binding against the reference (SAS-6 [1]) | binding against the reference (SAS-6 [2]) | binding result (Strep-NEDD1) |
| --- | --- | --- | --- |
| NEDD1 (from UniProt Q8NHV4) S325A | weaker | weaker | – |
| B1 | – | – | binds |
